Test results taken from patent publication US20260098089A1.

Assays:
[1] = biological target: Human CD7 on cells (CEM and other T-ALL cells, peripheral NK and T cells) (human) (UniProt P09564); test: cell-based or functional assay
[2] = biological target: Human CD7 protein (soluble) (human) (UniProt P09564); test: SPR, captured mAb, global fit 1:1 model
[3] = biological target: Cynomolgus monkey (Macaca fascicularis) CD7 protein (soluble) (cynomolgus monkey (Macaca fascicularis)); test: SPR, captured mAb, global fit 1:1 model
Chain of Cynomolgus monkey (Macaca fascicularis) CD7 protein (soluble) (cynomolgus monkey (Macaca fascicularis)) (chain, as listed by the source limits assumed): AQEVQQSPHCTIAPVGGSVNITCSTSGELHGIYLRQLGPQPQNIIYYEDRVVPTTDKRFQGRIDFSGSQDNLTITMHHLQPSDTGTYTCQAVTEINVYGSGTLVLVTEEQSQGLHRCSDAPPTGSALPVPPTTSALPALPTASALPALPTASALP

Chain of Human CD7 on cells (CEM and other T-ALL cells, peripheral NK and T cells) (human) (P09564 26-238 limits assumed): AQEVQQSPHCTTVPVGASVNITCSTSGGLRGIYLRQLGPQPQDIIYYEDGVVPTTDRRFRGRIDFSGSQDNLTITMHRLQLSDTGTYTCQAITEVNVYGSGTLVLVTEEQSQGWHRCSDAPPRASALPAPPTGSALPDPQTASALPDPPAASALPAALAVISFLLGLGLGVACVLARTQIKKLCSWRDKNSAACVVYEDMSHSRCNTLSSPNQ
Chain of Human CD7 protein (soluble) (human) (P09564 26-180 limits assumed): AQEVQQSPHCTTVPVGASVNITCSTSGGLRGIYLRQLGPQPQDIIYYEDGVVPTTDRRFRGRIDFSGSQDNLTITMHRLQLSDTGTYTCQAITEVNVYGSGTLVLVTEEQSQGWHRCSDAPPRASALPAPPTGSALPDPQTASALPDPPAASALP

| Substance | EC50, CDC assay on CEM cells [1] | Maximum killing, CDC assay on CEM cells [1] | Kd [2] | koff [2] | kon [2] | Kd [3] | koff [3] | kon [3] | CDC assay on CEM cells, EC50 (FIG. 1) [1] | CDC assay on CEM cells, maximum killing (FIG. 1) [1] |
| --- | --- | --- | --- | --- | --- | --- | --- | --- | --- | --- |
| TH69 E345R (antibody) | 0.21 nM | 87.1% | – | – | – | – | – | – | – | – |
| RFT2 IgG1 (antibody) | – | – | 6.22 nM | 0.0037 s⁻¹ | 611000 M⁻¹ s⁻¹ | 50.8 nM | 0.0254 s⁻¹ | 529000 M⁻¹ s⁻¹ | – | – |
| TH69 (antibody) | – | – | 0.279 nM | 0.000125 s⁻¹ | 451000 M⁻¹ s⁻¹ | – | – | – | – | – |
| RFT2 IgG1 E345R (antibody) | 0.22 nM | 98.5% | – | – | – | – | – | – | < 1 nM | 100% |
